The results in this text go back to patent publication US20180072770A1, “Influenza Virus Binding Peptides” (priority 2014, published 2018).

Experiment [1] addresses T1, hemagglutinin of influenza A virus X31 (A/Aichi/2/68 H3N2) (influenza A virus A/Aichi/2/68 H3N2 (X31)), P03437. The experiment in a line: cell-based or functional assay.
Experiment [2] concerns the target T1, hemagglutinin of influenza A virus X31 ….
For experiment [3] the target is unchanged. The source holds these as a separate data set.
The target is the same in experiment [4]. The experiment in a line: SPR competition, virus preincubated with peptide, immobilised fetuin.

No end group written: not given here.

B1: reference peptide with SEQ ID NO:1 (FYDYDVFY), N-terminal (Lys)4, C-terminal amide (peptide)
peptide: KKKKFYDYDVFY
modifications: not fully specified (C-terminus)
As usually defined, the IC50 is the concentration needed to halve the response being measured. As usually defined, the Kd is the free concentration of one partner at which half of the binding sites on the other are occupied at equilibrium, for simple one-to-one binding. In experiment [1], B1 registered a Hemagglutination inhibition (IC50, HAI) of 163 µM and a Mean Ki(HAI), hemagglutination inhibition assay, human erythrocytes of 235 µM. The molecule further yielded an IC50 in experiment [2] of 90 µM. In experiment [3], this molecule gave a Kd of 59 µM.

B2: peptide with SEQ ID NO:28, N-terminal (Lys)4, C-terminal amide (peptide)
peptide: KKKKFYGYDVFF
modifications: not fully specified (C-terminus)
In experiment [1], B2 displayed a Hemagglutination inhibition (IC50, HAI) of 18 µM and a Mean Ki(HAI), hemagglutination inhibition assay, human erythrocytes of 31.9 µM. In experiment [4], this molecule showed a fold lower IC50,RB than the reference peptide SEQ ID NO:1 of 4.5 fold. The molecule also returned an IC50 in experiment [2] of 20 µM.
